Laboratory results reported in article PMC5944358 (The Biochemical journal, 2018).
Like-named read-outs stand apart in the source and are kept apart here.

Columns and labels:
[1] = molecular target: T1, HIV-1 YU2 gp120 (HIV-1 YU2, UniProt P35961 32-498); experiment: SPR
[2] = molecular target: T1, HIV-1 YU2 gp120; experiment: SPR; remark: listed apart in the source
[3] = molecular target: T1, HIV-1 YU2 gp120; experiment: ELISA
[4] = molecular target: T1, HIV-1 YU2 gp120; experiment: ITC

Row | Binder | Kd [1] | koff [2] | kon [2] | IC50 [3] | Kd [4] | stoichiometry N [4] | Kd [2] | k1 (step 1, association) [2] | k2 (step 2, forward) [2] | k-1 (step 1, dissociation) [2] | k-2 (step 2, reverse) [2] | koff [1] | kon [1]
1 | Microvirin (MVN) (natural protein) MPNFSHTCSSINYDPDSTILSAECQARDGEWLPTELRLSDHIGNIDGELQFGDQNFQETCQDCHLEFGDGEQSVWLVCTCQTMDGEWKSTQILLDSQIDNNDSQLEIG | 120 nM | 0.000445 s⁻¹ | 4160 M⁻¹ s⁻¹ | 68 ± 8 nM | 225 ± 10 nM | 1.29 ± 0.04 protein:gp120 | – | – | – | – | – | – | –
2 | MVN_Q81K (natural protein) MPNFSHTCSSINYDPDSTILSAECQARDGEWLPTELRLSDHIGNIDGELQFGDQNFQETCQDCHLEFGDGEQSVWLVCTCKTMDGEWKSTQILLDSQIDNNDSQLEIG | – | 0.000368 s⁻¹ | 9180 M⁻¹ s⁻¹ | – | – | – | 45 nM | 1.73e+06 M⁻¹ s⁻¹ | 0.0048 M⁻¹ s⁻¹ | 0.16 s⁻¹ | 0.0023 s⁻¹ | – | –
3 | MVN_Q81K/G85Q (natural protein) MPNFSHTCSSINYDPDSTILSAECQARDGEWLPTELRLSDHIGNIDGELQFGDQNFQETCQDCHLEFGDGEQSVWLVCTCKTMDQEWKSTQILLDSQIDNNDSQLEIG | – | 9.4e-05 s⁻¹ | 880 M⁻¹ s⁻¹ | – | – | – | 101 nM | 160000 M⁻¹ s⁻¹ | 0.0041 M⁻¹ s⁻¹ | 0.053 s⁻¹ | 0.00178 s⁻¹ | – | –
4 | MVN_Q81K/M83R/G85Q (natural protein) MPNFSHTCSSINYDPDSTILSAECQARDGEWLPTELRLSDHIGNIDGELQFGDQNFQETCQDCHLEFGDGEQSVWLVCTCKTRDQEWKSTQILLDSQIDNNDSQLEIG | – | 0.000232 s⁻¹ | 3240 M⁻¹ s⁻¹ | – | – | – | 77 nM | 340000 M⁻¹ s⁻¹ | 0.0055 M⁻¹ s⁻¹ | 0.058 s⁻¹ | 0.0041 s⁻¹ | – | –
5 | MVN_G43E (natural protein) MPNFSHTCSSINYDPDSTILSAECQARDGEWLPTELRLSDHIENIDGELQFGDQNFQETCQDCHLEFGDGEQSVWLVCTCQTMDGEWKSTQILLDSQIDNNDSQLEIG | – | 0.00061 s⁻¹ | 2020 M⁻¹ s⁻¹ | – | – | – | 360 nM | 340000 M⁻¹ s⁻¹ | 0.0049 M⁻¹ s⁻¹ | 0.244 s⁻¹ | 0.0025 s⁻¹ | – | –
6 | MVN_G43E/Q81K/M83R/G85Q (natural protein) MPNFSHTCSSINYDPDSTILSAECQARDGEWLPTELRLSDHIENIDGELQFGDQNFQETCQDCHLEFGDGEQSVWLVCTCKTRDQEWKSTQILLDSQIDNNDSQLEIG | – | 0.000156 s⁻¹ | 1490 M⁻¹ s⁻¹ | – | – | – | 100 nM | 240000 M⁻¹ s⁻¹ | 0.0063 M⁻¹ s⁻¹ | 0.078 s⁻¹ | 0.002 s⁻¹ | – | –
7 | MVN_G43E/G85Q (natural protein) MPNFSHTCSSINYDPDSTILSAECQARDGEWLPTELRLSDHIENIDGELQFGDQNFQETCQDCHLEFGDGEQSVWLVCTCQTMDQEWKSTQILLDSQIDNNDSQLEIG | – | 0.000122 s⁻¹ | 710 M⁻¹ s⁻¹ | – | – | – | 180 nM | 90000 M⁻¹ s⁻¹ | 0.0077 M⁻¹ s⁻¹ | 0.051 s⁻¹ | 0.0024 s⁻¹ | – | –
8 | MVN_G85Q (natural protein) MPNFSHTCSSINYDPDSTILSAECQARDGEWLPTELRLSDHIGNIDGELQFGDQNFQETCQDCHLEFGDGEQSVWLVCTCQTMDQEWKSTQILLDSQIDNNDSQLEIG | – | 0.000191 s⁻¹ | 2960 M⁻¹ s⁻¹ | – | – | – | 72 nM | 290000 M⁻¹ s⁻¹ | 0.0089 M⁻¹ s⁻¹ | 0.071 s⁻¹ | 0.0027 s⁻¹ | – | –
9 | MVN_G43E/M83R (natural protein) MPNFSHTCSSINYDPDSTILSAECQARDGEWLPTELRLSDHIENIDGELQFGDQNFQETCQDCHLEFGDGEQSVWLVCTCQTRDGEWKSTQILLDSQIDNNDSQLEIG | – | 0.000103 s⁻¹ | 980 M⁻¹ s⁻¹ | – | – | – | 130 nM | 110000 M⁻¹ s⁻¹ | 0.0075 M⁻¹ s⁻¹ | 0.045 s⁻¹ | 0.0023 s⁻¹ | – | –
10 | MVN_M83R (natural protein) MPNFSHTCSSINYDPDSTILSAECQARDGEWLPTELRLSDHIGNIDGELQFGDQNFQETCQDCHLEFGDGEQSVWLVCTCQTRDGEWKSTQILLDSQIDNNDSQLEIG | – | 0.000145 s⁻¹ | 2990 M⁻¹ s⁻¹ | – | – | – | 52 nM | 290000 M⁻¹ s⁻¹ | 0.0076 M⁻¹ s⁻¹ | 0.05 s⁻¹ | 0.0029 s⁻¹ | – | –
11 | MVN_G43E/Q81K (natural protein) MPNFSHTCSSINYDPDSTILSAECQARDGEWLPTELRLSDHIENIDGELQFGDQNFQETCQDCHLEFGDGEQSVWLVCTCKTMDGEWKSTQILLDSQIDNNDSQLEIG | – | 0.000173 s⁻¹ | 1660 M⁻¹ s⁻¹ | – | – | – | 120 nM | 180000 M⁻¹ s⁻¹ | 0.0082 M⁻¹ s⁻¹ | 0.064 s⁻¹ | 0.0027 s⁻¹ | – | –
12 | MVN(Q81K/M83R) (natural protein) MPNFSHTCSSINYDPDSTILSAECQARDGEWLPTELRLSDHIGNIDGELQFGDQNFQETCQDCHLEFGDGEQSVWLVCTCKTRDGEWKSTQILLDSQIDNNDSQLEIG | – | 3.3e-05 s⁻¹ | 1880 M⁻¹ s⁻¹ | – | 75 ± 11 nM | 1.31 ± 0.132 protein:gp120 | 21 nM | 310000 M⁻¹ s⁻¹ | 0.0051 M⁻¹ s⁻¹ | 0.03 s⁻¹ | 0.0011 s⁻¹ | – | –
13 | cyanovirin-N (CVN) (natural protein) LGKFSQTCYNSAIQGSVLTSTCERTNGGYNTSSIDLNSVIENVDGSLKWQPSNFIETCRNTQLAGSSELAAECKTRAQQFVSTKINLDDHIANIDGTLKYE | 8.65 nM | – | – | – | – | – | – | – | – | – | – | 1.48e-05 s⁻¹ | 1710 M⁻¹ s⁻¹
